# Results taken from patent US20050153372A1.
# Biological target: calmodulin (in the CaMKI and calcineurin activity assays)
# Test: cell-based or functional assay
substance,measurement,value
phosphorylated DARPP-21,"inhibition of CaMKI kinase activity in vitro, IC50",1200 nM
same,"inhibition of calcineurin phosphatase activity in vitro, IC50",1000 nM
